Assay results taken from US20240228604A1 (ALCHEMAB THERAPEUTICS, published 2024).

Assays:
[1] = molecular target: T1, UNC5C recombinant human antigen, Fc-tagged (R&D Systems, #1005-UN) (human, UniProt O95185 41-380, limits assumed); experiment: ELISA, antigen down
T1 construct: Bought protein; also called rhUNC5C; not shown: Fc tag of the bought protein

[2] = molecular target: T2, full-length human UNC5A on fixed HEK293 cells (Retrogenix panel) (human, UniProt Q6ZN44 26-842); experiment: Retrogenix cell microarray, fixed HEK293 cells
T2 construct: whole, on cells
T2 sequence (looked up): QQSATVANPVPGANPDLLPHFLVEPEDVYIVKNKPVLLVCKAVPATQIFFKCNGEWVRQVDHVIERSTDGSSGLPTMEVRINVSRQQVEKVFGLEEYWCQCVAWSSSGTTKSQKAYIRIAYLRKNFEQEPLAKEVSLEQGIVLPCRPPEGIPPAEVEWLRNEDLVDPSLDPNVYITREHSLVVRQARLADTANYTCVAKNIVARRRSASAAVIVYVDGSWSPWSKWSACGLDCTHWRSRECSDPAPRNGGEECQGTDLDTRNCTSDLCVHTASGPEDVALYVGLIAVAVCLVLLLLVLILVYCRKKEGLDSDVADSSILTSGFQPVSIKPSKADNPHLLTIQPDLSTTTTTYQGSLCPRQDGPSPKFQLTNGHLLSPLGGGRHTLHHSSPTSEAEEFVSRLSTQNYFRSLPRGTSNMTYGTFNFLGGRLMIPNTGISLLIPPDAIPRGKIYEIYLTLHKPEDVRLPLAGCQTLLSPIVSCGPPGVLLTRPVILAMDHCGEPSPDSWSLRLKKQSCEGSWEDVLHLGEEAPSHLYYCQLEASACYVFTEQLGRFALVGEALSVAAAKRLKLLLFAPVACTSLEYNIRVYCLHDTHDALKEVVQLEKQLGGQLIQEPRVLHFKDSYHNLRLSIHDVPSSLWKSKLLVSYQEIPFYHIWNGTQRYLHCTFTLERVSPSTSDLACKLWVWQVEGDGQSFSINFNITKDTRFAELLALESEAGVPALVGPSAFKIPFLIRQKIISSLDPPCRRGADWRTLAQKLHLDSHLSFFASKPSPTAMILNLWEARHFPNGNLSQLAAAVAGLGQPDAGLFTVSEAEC

[3] = molecular target: T3, full-length human UNC5B on fixed HEK293 cells (Retrogenix panel) (human, UniProt Q8IZJ1 27-945); experiment: Retrogenix cell microarray, fixed HEK293 cells
T3 construct: whole, on cells

[4] = molecular target: T4, Human recombinant UNC5A (BLI antigen) (Human, UniProt Q6ZN44 26-306); experiment: BLI, antigen captured by His tag, antibody as analyte
T4 construct: Captured by His tag; also called UNC5A ectodomain
T4 sequence (Q6ZN44 other isoform, or with tags, fused parts or gaps): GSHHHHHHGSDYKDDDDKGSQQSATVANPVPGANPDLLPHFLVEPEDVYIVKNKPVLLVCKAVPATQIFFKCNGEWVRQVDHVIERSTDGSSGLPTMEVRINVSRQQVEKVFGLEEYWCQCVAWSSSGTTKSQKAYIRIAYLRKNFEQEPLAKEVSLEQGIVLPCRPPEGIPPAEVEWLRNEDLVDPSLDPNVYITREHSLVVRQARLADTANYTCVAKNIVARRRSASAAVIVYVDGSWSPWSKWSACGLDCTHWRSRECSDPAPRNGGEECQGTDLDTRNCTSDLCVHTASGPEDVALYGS
Description: (§1) Antigen was loaded as ligand and dipped into antibody as analyte during association, and assay buffer during dissociation.
(§2) Purified recombinant antigens were purchased from a commercial supplier or prepared and purified in-house and details are shown in Table 2.

[5] = molecular target: T5, Human recombinant UNC5B (BLI antigen) (Human, UniProt Q8IZJ1 27-377); experiment: as above
T5 construct: also called UNC5B ectodomain
Description: as §1, §2

[6] = molecular target: T6, Human recombinant UNC5D (BLI antigen) (Human, UniProt Q6UXZ4 33-379); experiment: as above
T6 construct: also called UNC5D ectodomain
T6 sequence (Q6UXZ4 other isoform, or with tags, fused parts or gaps): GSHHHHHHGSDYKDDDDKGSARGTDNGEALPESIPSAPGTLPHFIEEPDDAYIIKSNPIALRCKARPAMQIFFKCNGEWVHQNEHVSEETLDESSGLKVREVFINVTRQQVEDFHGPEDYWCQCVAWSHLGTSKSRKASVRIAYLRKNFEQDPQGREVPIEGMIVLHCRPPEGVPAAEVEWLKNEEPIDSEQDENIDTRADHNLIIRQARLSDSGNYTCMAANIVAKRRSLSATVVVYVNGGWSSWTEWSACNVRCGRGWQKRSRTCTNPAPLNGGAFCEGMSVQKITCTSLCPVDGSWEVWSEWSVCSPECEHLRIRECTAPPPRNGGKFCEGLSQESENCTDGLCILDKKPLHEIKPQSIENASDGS
Description: as §1, §2

[7] = molecular target: T7, Human Neogenin (R&D Systems catalogue number 8607-NE; BLI antigen) (Human, UniProt Q92859 34-1105); experiment: as above
T7 construct: extracellular domain; Bought protein; also called neogenin-1 ectodomain; NEO1
T7 sequence (looked up): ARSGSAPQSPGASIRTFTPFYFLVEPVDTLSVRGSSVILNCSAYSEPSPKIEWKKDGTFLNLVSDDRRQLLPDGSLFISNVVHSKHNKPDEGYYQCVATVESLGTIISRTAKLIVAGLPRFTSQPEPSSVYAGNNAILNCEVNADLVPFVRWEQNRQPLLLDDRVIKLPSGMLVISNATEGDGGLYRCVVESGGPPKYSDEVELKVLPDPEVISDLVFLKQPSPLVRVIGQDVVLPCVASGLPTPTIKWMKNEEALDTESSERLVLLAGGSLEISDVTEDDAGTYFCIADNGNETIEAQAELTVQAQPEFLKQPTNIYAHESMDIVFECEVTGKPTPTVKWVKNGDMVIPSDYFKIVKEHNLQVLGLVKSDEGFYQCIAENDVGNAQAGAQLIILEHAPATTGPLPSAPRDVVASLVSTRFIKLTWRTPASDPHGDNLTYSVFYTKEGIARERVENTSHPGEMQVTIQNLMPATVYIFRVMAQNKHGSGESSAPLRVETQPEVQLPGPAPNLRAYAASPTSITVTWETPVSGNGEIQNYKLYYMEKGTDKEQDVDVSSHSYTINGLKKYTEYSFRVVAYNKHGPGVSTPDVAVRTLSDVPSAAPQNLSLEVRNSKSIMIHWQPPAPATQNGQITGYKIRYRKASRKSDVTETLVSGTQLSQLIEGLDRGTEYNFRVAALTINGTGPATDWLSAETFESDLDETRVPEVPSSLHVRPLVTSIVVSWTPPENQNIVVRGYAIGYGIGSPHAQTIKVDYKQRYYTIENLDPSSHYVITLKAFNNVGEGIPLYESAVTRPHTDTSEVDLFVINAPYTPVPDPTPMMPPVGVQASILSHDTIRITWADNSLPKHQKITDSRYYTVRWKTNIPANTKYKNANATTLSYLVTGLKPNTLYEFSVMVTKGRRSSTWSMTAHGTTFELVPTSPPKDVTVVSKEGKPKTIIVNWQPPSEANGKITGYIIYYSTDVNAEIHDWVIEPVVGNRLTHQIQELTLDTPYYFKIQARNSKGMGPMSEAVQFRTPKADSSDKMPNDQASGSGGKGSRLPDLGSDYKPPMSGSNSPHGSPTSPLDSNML
Description: as §1, §2

[8] = molecular target: T8, Human recombinant DCC (BLI antigen) (Human, UniProt P43146 26-1097); experiment: as above
T8 construct: also called Netrin receptor DCC ectodomain
T8 sequence (P43146 other isoform, or with tags, fused parts or gaps): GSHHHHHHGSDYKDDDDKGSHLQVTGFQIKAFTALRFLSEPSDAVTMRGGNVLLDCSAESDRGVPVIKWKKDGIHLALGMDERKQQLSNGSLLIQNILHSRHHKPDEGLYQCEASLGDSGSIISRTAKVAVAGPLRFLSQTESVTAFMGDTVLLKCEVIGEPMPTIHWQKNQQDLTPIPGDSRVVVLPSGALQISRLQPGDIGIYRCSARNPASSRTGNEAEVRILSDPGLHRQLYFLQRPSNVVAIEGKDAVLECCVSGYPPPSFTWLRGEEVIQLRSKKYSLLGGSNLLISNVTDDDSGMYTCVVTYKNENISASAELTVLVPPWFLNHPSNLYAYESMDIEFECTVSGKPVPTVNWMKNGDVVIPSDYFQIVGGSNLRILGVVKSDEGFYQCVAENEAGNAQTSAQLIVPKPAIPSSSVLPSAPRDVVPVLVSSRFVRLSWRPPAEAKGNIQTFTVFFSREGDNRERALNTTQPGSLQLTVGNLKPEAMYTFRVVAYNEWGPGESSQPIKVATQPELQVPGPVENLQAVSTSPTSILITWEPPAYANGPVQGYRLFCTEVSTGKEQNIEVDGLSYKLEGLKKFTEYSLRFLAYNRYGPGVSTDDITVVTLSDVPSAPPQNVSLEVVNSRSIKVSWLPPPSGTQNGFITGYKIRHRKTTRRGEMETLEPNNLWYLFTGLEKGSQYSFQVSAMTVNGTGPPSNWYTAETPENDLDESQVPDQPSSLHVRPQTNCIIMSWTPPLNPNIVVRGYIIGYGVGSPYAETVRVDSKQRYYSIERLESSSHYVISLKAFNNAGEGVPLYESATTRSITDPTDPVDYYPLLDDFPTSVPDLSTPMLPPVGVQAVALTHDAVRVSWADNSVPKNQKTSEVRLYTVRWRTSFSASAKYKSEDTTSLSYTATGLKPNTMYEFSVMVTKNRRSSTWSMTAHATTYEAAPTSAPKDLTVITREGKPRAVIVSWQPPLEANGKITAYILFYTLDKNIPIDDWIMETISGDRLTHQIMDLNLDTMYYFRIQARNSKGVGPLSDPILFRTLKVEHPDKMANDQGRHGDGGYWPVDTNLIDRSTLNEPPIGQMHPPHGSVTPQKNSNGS
Description: as §1, §2

T1 sequence (O95185 41-380 limits assumed): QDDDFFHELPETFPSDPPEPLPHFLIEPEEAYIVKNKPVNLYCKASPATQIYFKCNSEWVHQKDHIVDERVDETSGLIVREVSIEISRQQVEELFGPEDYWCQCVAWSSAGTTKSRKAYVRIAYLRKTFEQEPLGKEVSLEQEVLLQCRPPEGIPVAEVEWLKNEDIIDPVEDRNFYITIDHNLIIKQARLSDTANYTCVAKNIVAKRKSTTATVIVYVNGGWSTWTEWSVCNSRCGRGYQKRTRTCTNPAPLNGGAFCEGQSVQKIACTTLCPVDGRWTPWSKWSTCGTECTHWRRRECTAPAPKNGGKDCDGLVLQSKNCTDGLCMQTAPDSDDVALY

B1: ATL_0006178 (antibody, IgG1, V domains shown)
VH: QVQLQESGPGLVKPSETLSLTCTVSGGSISSYFWSWIRQPPGKGLEWIGYIHYSGTTNQNPSLKSRVTISVDKSKNQFSLKLSSVTAADTAVYYCARGRGMATLPFDYWGQGTLVTVSS
VL: not shown
notes: Combination variant of ATL_5262 (T82K, Q67 kept, N58Y); also called ATL_6178; ATL6178
**Q.** B1 was tested. Which EC50 [1] did it give?
**A.** 8 nM

**Q.** Does B1 bind [2]?
**A.** no binding

**Q.** Does B1 bind [3]?
**A.** no binding

**Q.** Does B1 bind [4]?
**A.** no binding (tested: up to 100 nM)

**Q.** Does B1 bind [5]?
**A.** no binding (tested: up to 100 nM)

**Q.** Does B1 bind [6]?
**A.** no binding (tested: up to 100 nM)

**Q.** Does B1 bind [7]?
**A.** no binding (tested: up to 100 nM)

**Q.** Does B1 bind [8]?
**A.** no binding (tested: up to 100 nM)
